From the nanobody polyreactivity screen of Harvey et al. (2022) come the findings set out here.

The data set can be described thus: yeast display, Sf9 membrane polyspecificity reagent, FACS + sequencing; frameworks hold sequencing errors. In outline: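 A synthetic nanobody library was expressed on Saccharomyces cerevisiae BJ5465 by galactose induction for 36–48 hours. The library was stained for 1 hour at 4 °C with 10% biotinylated, detergent-solubilized Sf9 membrane reagent and enriched with streptavidin microbeads before FACS. Low and high (top ~1%) gates were set on anti-HA fluorescence for expression and streptavidin fluorescence for reagent binding, and each polyreactivity label reflects the gate of origin.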
On to “QVQLEESGGGLVQAGGRLRLSCAASGSIFGFYAMGWYRQAPGKERELVASITISGGSTYYADSVKGRFTISRDNAKNTVYLQMNSLKPEDTAVYYGAARRYWDYNYWGQGTQVTVSS”, for which the “polyreactivity (PSR sort gate)” value is recorded as “low polyreactivity”.
With “QVQLVESGGGLVQAGGSLRLSCAASGRTFAYNAMGWYRQAPGKERELVAAISRSGTITYYADSVKGRFTISRDNAKNTVYLQMNSLKPEDTAVYYCNKASTYPSYDYWGQGTQVTVSS” the entry was “high polyreactivity”; with “QVQLVESGGGLVQAGGSLRLSCAASGSTFRFYAMGWYRQAPGKERELVAAISKSGGITYYADSVKGRFTISRDNAKNTVYLQMNSLKPEDTAVYSCATVGLLSNFYARFNYWGQGTQVTVSS”, “high polyreactivity”.
In the case of “QVQLVESGGGLVQAGGSLRLRCAASGYTLGPYAMGWYRQAPGKEREEVAALSWGGGRTYYADSVKGRFTISRDNAKNTVYLQMNSLKPEDTAVYYCGAKWSHVRDGPKYDYWGQGTQVTVSS”, the “polyreactivity (PSR sort gate)” value is listed as “low polyreactivity”.
With “QVQLVESGGGLVQAGGSLRLSCAACGITWGYAMGWYRQAPGKERELVAVIRWSGTSTSYADSVKGRYTISRAKAKNTVYLQMNSLKPEDTAVYYCNAAWYDQYGDSDGDDYWGQGTQVTVSS” the entry was “low polyreactivity”; with “QVQLVESGGGLVQAGGSLRLSCAASGSTLTRNAMGWYRQAPGKERELVAAITTSGGRTYYADSVKGRFTISRDNAKNTVYLQMNSLKPEDTAVYYCAARQRSEYVSGSLFYYWGQGTQVTVSS”, “high polyreactivity”.
Under “QVQLVESGGGLVQAGGSLRLSCAASGFILRYYAMGWYRQAPGKERELVAAISSGGGTYYADSVKGRFTISRDNAKNTVYLQMNSLKPEDTAVYYCAAVYWGLWHWLYTDDDGDYWGQGTQVTVSS” stands “high polyreactivity”; under “QVQLVESGGGLVQAGGSLRLICAASRRTYYSNAMGWYRQAPGKERELVAASTSTDDSTYYADSVKGRFTISRDNAKNTVYLQMNSLKPEDTAVYYCNTDGLIAIRGLWWVEYDYWGQGTQVTVSS”, “low polyreactivity”; under “QVQLVESGGGLVQAGGSLRLSCAASGSTFYKYAMGWYRPAPGKESELVAAISRGGSTYYADSVKGRFTISRDNAKNTFYLQMNSLKPEDTAVYYCAAETVSYYSKYDYWGQGTQVTVSS”, “low polyreactivity”.
Regarding “QVQLVESGGGLVQAGGSLRLSCAASGRTYFTNAMGWYRQAPGKERELVAAITGSGGSTSYADSVKVRFTISRDNAKNTVYLQMNSLKPEDTAVYYCAAEWQELEYVYWGQGTQVTVSS”, the “polyreactivity (PSR sort gate)” value is “low polyreactivity”.
Under “QVQLVESGGGLVQAGGSLRLSCAASGRTFLYNAMGWYRQAPGKERELVAGITQSGSSTYYADSVKGRFTISRDNAKNTVYLQMNSLKPEDTAVYYCAKVLYRRGYKFDYWGQGTQVTVSS” stands “low polyreactivity”; under “QVQLVESGGGLFQAGGSLRLSCAPSGFTFSWYDMGWYRQAPGKERELVAAISLSGDRTYYADSVKGRFTISRDNAKNTVYLQMNSLKPEDTAVYYCAADERVDQCWIRMDYWGQGTQVTVSS”, “low polyreactivity”; under “QVQLVESGGGLVQAGGSLRLSCAASGLIFSYNAMGWYRQAPGKERELVATIRRVGSTNYADSVKGRFTISRDNAKNTVYLQMNSLKPEDTAVYYCAARSLRYGRGMYYWGQGTQVTVSS”, “high polyreactivity”.
“QVQLVESGGGLVQAGGSLRLSCAASGITLVRYAMGWYRQAPGKERELVAAISSSGGSTYYADSVKGRFTISRHNAKNTVYLQMNSLKPEDTAVYYCNAYVHSRRVEFNYWGQGTQVTVSS”: the “polyreactivity (PSR sort gate)” value was “high polyreactivity”.
“QVQLVESGGGLDQAGGSLRLSCAASGSTFYYYAMGWYRQAPGKERELVATISSGSSTNYADSVKGRFTISRDNAKNTVYLQMNCLKPEDTAVYYCAADRWYITLSIDATISYDYWGQGTQVTVSS”: the “polyreactivity (PSR sort gate)” value is recorded as “low polyreactivity”.
Under “QVQLVESGGGLVQAGGSLRLSCAASGRIWSNAMGWYRQAPGKERELVAVISSRGGSTYYADSVKGRFTISRDNAKNTVYFQMNSLKPEDTAVYYCAARQRAKYNYWGQGTQVTVSS” stands “high polyreactivity”.
Regarding “QVQLVESGGGLVQAGGSLRLSCAASGSTFFGNAMGWYIQAPGKERELVAAIRFSGVGTYYADSVKGRFTISRDNAKNTVYLQLNSLKPEYTEVFYCAAESYYKYYWGQGTQVTVSS”, the “polyreactivity (PSR sort gate)” value was “low polyreactivity”.
Under “QVQLVESGGGLVQAGGSLSLSCAASGIISTYYVMGWYRQAPGKERELVAAITGGDSSTYYADSVKGRFTISRDNAKNTVYLQMNSLKPEDTAVYYCAKEYYYARGARYDYWGQGTQVTVSS” stands “low polyreactivity”; under “QVQLVESGGGLVQAGGSLRLSCAASGFTFDYYAMGWYRQAPGKERELVAAITSGSITYYADSVKGRFTISRDNAKNTVYLQMNSLKPEDTAVYYCARYGYRRVGSRWAEFDYWGQGTQVTVSS”, “high polyreactivity”; under “QVQLVESGGGLVQAGGSLRLSCAPSGITFYKYAMGWYRQAPGKERELVATISRRGGTTYYADSVKGRFTISRDNAKNTVYLQMNSLKPEDTAVYYCNADSRTYRYYWSYGYWGQGTQVTVSS”, “high polyreactivity”.
With “QVQLVESGGGLVQAGGSLRLSCAASGIIFWVNAMGWYRQAPGKERELVAAIRSDGSTKYADSVKGRFTISRDNAKNTVYLQMNSLKPEDTALYYCAKRDYSYPWFRDYYYWGQGTQVTVSS” the entry was “low polyreactivity”.
Under “QVQLVESGGGLVQAGGSLRLSCAASGSIFLGNAMGWYRQAPGKERELVAAISGGDSTNYADSVKGRFTISRDNAKNTVYLQMNSLKPEDTAVYYCAKDRPQEYDYWGQGTQVTVSS” stands “low polyreactivity”; under “QVQLVESGGGLVQAGGSLRLSCAASGRIFVCYAMGWYRQAPVKERELLAAITCRGGSTYYADSVKGRFTISRDNAKNTVYLQMNSLKPEDTEVYYCAAVGHSGGRRYDYWGQGTQVTVSS”, “high polyreactivity”.
For the sequence “QVQLVESGGGLVQAGGSLRLSCGASGRFFDDYAVGWYRQAPGKEREFVAAISRSGASTYYADSVKGRFTISRDNAKNTVYLQMNSLKPEDTAVYYCAARAGANYRMDYWGQGTQVTVSS”, the “polyreactivity (PSR sort gate)” value was “high polyreactivity”.
Under “QVQLVESGGGLVQAGGSLRLSCDASGSIFDYNTMGWYRQAPGKERELIAVISGTGGSTYYGDSVKGRFTISRDNAKNTVYLEMNSLKPEDTAVYYCAAAWYYSSRAFHATWGHDYWGQGTQVTVSS” stands “low polyreactivity”; under “QGQLVESGGGLVQAGGSLRLSCAAYGRIFYVYAMGWYRQAPGKERELVATITSSGDGTYYADSVKGRFTISRDNAKNTGYLQMNSLIPEDTAVYYCAARSWPYSQTGKRFVEYYYWGQGTQVSVSS”, “low polyreactivity”; under “QVQLVESGGGLVQAGGSLRLSCAASGFTFRVYAMGRYRQAPGKERELVAVISGTGGRTYYADSVKGRFTISRDNAKNTVYLQMNSLKPEDTAVYYCARRGRPPAIYDYWGQGTQVTVSS”, “high polyreactivity”.
On to “QVQLVESGGGLVQAGGSLPLSCAASGSIFKPYAMGWYRQAPGKERELVAVISWRGGSTYYADSVKGRFTISRDNAKNTVYLQMNSLKPEDTAVYYCAARRYRYFDGTVPLDYWGQGTQVTVSS”, for which the “polyreactivity (PSR sort gate)” value was “high polyreactivity”.
With “QVQLVESGGGLVQAGGSLRLSCAASGSIFRKYAMGWYRQATGKERELVAAIRSSGGSTYYADSVKGRFTISRDNAKNTVYLQMNSLKPEDTSVYYWAATTGEHEDFRGQGTQVTVSS” the entry was “high polyreactivity”.
Under “QVQLVESGGGLVQAGGSLRLSCAASGITFLNYAMGWYRQAPGKERELVAAIDTRGGRTNYADSVKGRFTISRDNAKNNVYLQMNSLKPEDTAVYYCAADPFYWYRSVRGEYWGQGSQVTVSS” stands “low polyreactivity”.
